Where no end group is shown, it is not given here. [ ]: non-standard residue; d: D form. Aib = CC(C)(N)C(=O)O
T1: human GIP receptor (human, UniProt P48546 22-466)
T1 sequence (looked up): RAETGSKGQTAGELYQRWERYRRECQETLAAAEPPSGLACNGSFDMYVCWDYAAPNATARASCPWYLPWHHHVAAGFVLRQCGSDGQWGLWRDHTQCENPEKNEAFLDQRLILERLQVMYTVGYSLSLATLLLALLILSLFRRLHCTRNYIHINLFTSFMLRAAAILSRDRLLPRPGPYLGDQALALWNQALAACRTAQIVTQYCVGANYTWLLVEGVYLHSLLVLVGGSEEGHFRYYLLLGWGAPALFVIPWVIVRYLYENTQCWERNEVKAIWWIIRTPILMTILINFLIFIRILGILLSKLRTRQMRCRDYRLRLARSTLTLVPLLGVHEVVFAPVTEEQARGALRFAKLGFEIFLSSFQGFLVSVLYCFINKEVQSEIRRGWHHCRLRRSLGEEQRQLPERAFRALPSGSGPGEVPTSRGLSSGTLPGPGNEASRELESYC


Molecular target: T1, human GIP receptor
Test: cell-based or functional assay

Binder | In vitro activity (%) of GIP derivatives compared to human native GIP in human GIP receptors (EC50 from accumulated cAMP, CHO cells expressing the human GIP receptor) [%]
Y[Aib]EGTFISDYSIYLDKQAA[Aib]EFVNWLL[Aib]GHPSSGAPPPSC (not fully specified) [GIP derivative of SEQ ID NO: 19] | 66.7
Y[Aib]EGTFISDYSIYLDKQAA[Aib]EFVNWLLAGHPSSGAPPPSC (not fully specified) [GIP derivative of SEQ ID NO: 22] | 71.6
Y[Aib]EGTFISDYSIAMDAIAQQDFVNWLLAGGPSSGAPPPSC (not fully specified) [GIP derivative of SEQ ID NO: 2] | 13.9
Y[Aib]EGTFISDYSI[Aib]LDKQAA[Aib]EFVNWLL[Aib]GHPSSGAPPPSC (not fully specified) [GIP derivative of SEQ ID NO: 24] | 183
Y[Aib]EGTFISDYSIYLDKQAA[Aib]EFVQWLI[Aib]GGPSSGAPPPSC (not fully specified) [GIP derivative of SEQ ID NO: 25] | 78.3
Y[Aib]EGTFISDYSI[Aib]MDAIAQQDFVNWLLAGGPSSGAPPPSC (not fully specified) [GIP derivative of SEQ ID NO: 3] | 15.6
Y[Aib]EGTFISDYSIAMDKIAQQDFVNWLLAQKPSSGAPPPSC (not fully specified) [GIP derivative of SEQ ID NO: 15] | 31.1
Y[Aib]EGTFISDYSIYLDAQAAKEFIAWLLAGGPSSGAPPPSC (not fully specified) [GIP derivative of SEQ ID NO: 10] | 13.9
Y[Aib]EGTFISDYSIYLDKQAQKEFVNWLL[Aib]GGPSSGAPPPSC (not fully specified) [GIP derivative of SEQ ID NO: 23] | 87.6
Y[Aib]EGTFISDYSIYLDKQAAQEFVNWLLAQKPSSGAPPPSC (not fully specified) [GIP derivative of SEQ ID NO: 18] | 13.6
Y[Aib]EGTFISDYSIQMDAIAQQDFVNWLLAGGPSSGAPPPSC (not fully specified) [GIP derivative of SEQ ID NO: 5] | 12.1
Y[Aib]EGTFISDYSI[Aib]LDKQAA[Aib]EFVNWLL[Aib]GGPSSGAPPPSC (not fully specified) [GIP derivative of SEQ ID NO: 21] | 123
Y[Aib]EGTFISDYSIYLDKQAA[Aib]EFVQWLIAGHPSSGAPPPC (not fully specified) [GIP derivative of SEQ ID NO: 26] | 66.7
Y[Aib]EGTFISDYSIYLDAIAQQDFVNWLLAGGPSSGAPPPSC (not fully specified) [GIP derivative of SEQ ID NO: 6] | 17.4
Y[Aib]EGTFISDYSIYLDKQAA[Aib]EFVNWLL[Aib]GGPSSGAPPPSC (not fully specified) [GIP derivative of SEQ ID NO: 20] | 75.3
Y[Aib]EGTFISDYSIYLDAQAA[Aib]DFVNWLLAGGPSSGAPPPSC (not fully specified) [GIP derivative of SEQ ID NO: 8] | 1.9
Y[Aib]EGTFISDYSIAMDGIAQQDFVNWLLAQKPSSGAPPPSC (not fully specified) [GIP derivative of SEQ ID NO: 16] | 11.3
Y[Aib]EGTFISDYSIAMDAIAQQDFVNWLLAQKPSSGAPPPSC (not fully specified) [GIP derivative of SEQ ID NO: 1] | 49.3
Y[Aib]EGTFISDYSIYLDAQAA[Aib]EFVNWLLAQKC (not fully specified) [GIP derivative of SEQ ID NO: 14] | 17.4
Y[Aib]EGTFISDYSIYLDKQAA[Aib]EFVNWLLAQKC (not fully specified) [GIP derivative of SEQ ID NO: 13] | 31.1
Y[Aib]EGTFISDYSIYLDAQAAKDFVNWLLAGGPSSGAPPPSC (not fully specified) [GIP derivative of SEQ ID NO: 9] | 2
Y[Aib]EGTFISDYSIAMDAIAQQDFVNWLLAQKGKKNDWKHNITQC (not fully specified; printed as YAibEGT FISDYSIAMDAIAQQDFVNWLLAQKGKKNDWKHNITQC) [GIP derivative of SEQ ID NO: 11] | 122
Y[Aib]EGTFISDYSIYLDAQAQQDFVNWLLAGGPSSGAPPPSC (not fully specified) [GIP derivative of SEQ ID NO: 7] | 19.6
Y[Aib]EGTFISDYSIALEKQAQQDFVNWLLAGGPSSGAPPPSC (not fully specified) [GIP derivative of SEQ ID NO: 17] | 111
Y[Aib]EGTFISDYSIYMDAIAQQDFVNWLLAGGPSSGAPPPSC (not fully specified) [GIP derivative of SEQ ID NO: 4] | 10.5
